Measured values as given in patent US20170121398A1 (PROTHENA BIOSCIENCES, published 2017).

Molecular target: pH4.0-treated TTR (human, UniProt P02766 21-147)
Experiment: ELISA, pH4-treated TTR-His captured on an anti-His coat, anti-mouse HRP detection, OD450

- EC50 (read off the curve): ~0.2 µg/mL
B1: mouse antibody 6C1 (antibody, IgG1, V domains shown)
VH: EVQLVESGGGLVQPGGSLKLSCAASGFTFSNYYMSWVRQTPEKRLEWVAYISIDGNNIYHPDSVKGRFTISRDNAKNTLYLQMSSLKSEDTAMYYCARDSDYGYFDVWGTGTTVTVSS
VL: DVLMTQTPLSLPVSLGDQASISCRSSQSIVHSNGNTYLEWYLQKRGQSPKLLIYKVSKRFSGVPDRFSGSGSGTDFILKISRVEAEDLGVYYCFQGSHVPLTFGGGTKLELK
notes: also called m6C1; mis-TTR mAb 6C1
